Experimental data: patent US20260022175A1 (Chugai, published 2026)
Residue numbers refer to the chain shown, from its start. Blank lines part the entries; values can stand above or below the binder they belong to.

How the values were obtained:
[1] = target: T1, human FcγRIIIa V allotype extracellular domain with C-terminal His-tag (human, UniProt P08637 17-208); test: SPR Biacore T200, Ab captured via Fab-lambda, pH 7.4, 25C;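 further: antibodies captured on a streptavidin chip carrying biotinylated anti-Fab-lambda, with each FcγR injected as analyte in phosphate buffer. KD fitted by 1:1 Langmuir or steady-state model depending on receptor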
T1 construct: extracellular domain; also called hFcγR IIIa V
Protocol: (§1) The interaction between the generated antibodies and human FcγRs was analyzed by the following method using Biacore T200. 50 mM Na-Phosphate, 150 mM NaCl, 0.05% Tween20 (pH 7.4) was used as the running buffer, and the assay was performed at 25° C. For the sensor chips, Series S SA (GE Healthcare) chips onto which CaptureSelect Human Fab-lambda Kinetics Biotin Conjugate (Thermo Fisher Scientific) was immobilized were used. The antibodies of interest were captured onto these chips and each FcγR diluted in the running buffer was allowed to interact with them. Chips were regenerated with 10 mM Glycine-HCl (pH 1.5) and 25 mM NaOH, and assay was performed by repeatedly capturing antibodies. The dissociation constants KD (mol/L) for FcγRs of each antibody were calculated using Biacore T200 Evaluation Software 2.0, using the 1:1 Langmuir binding model for FcγRIa and FcγRIIIa and the steady state affinity model for FcγRIIa. For FcγRIIb, the binding amount of FcγRIIb per unit amount of antibody was calculated by correcting the binding amount of FcγRIIb obtained from the sensorgram obtained by the measurement with the amount of antibody captured onto the chip surface.

[2] = target: T2, human FcγRIIa H allotype extracellular domain with C-terminal His-tag (human, UniProt P12318 34-217); test: as above
T2 construct: extracellular domain; also called hFcγR IIa H
T2 sequence (looked up): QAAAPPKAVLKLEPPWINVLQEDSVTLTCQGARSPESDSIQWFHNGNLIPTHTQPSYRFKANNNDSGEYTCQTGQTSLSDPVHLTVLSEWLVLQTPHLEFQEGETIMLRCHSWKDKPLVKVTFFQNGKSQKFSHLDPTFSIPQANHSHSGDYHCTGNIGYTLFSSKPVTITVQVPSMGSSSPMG
Protocol: as §1

[3] = target: T3, human FcγRIIa R allotype extracellular domain with C-terminal His-tag (human, UniProt P12318 34-217); test: as above
T3 construct: extracellular domain; also called hFcγR IIa R
T3 sequence (looked up): T2 sequence (looked up) with H134R
Protocol: as §1

[4] = target: T4, human FcγRIIIa F allotype extracellular domain with C-terminal His-tag (human, UniProt P08637 17-208); test: as above
T4 construct: extracellular domain; also called hFcγR IIIa F
Protocol: as §1

[5] = target: T5, human FcγRIa extracellular domain with C-terminal His-tag (human, UniProt P12314 16-292); test: as above
T5 construct: extracellular domain; also called hFcγR Ia; hFcγRIa
Protocol: as §1

[6] = target: T6, human FcγRIIb extracellular domain with C-terminal His-tag (human, UniProt P31994 43-217); test: SPR; FcγRIIb at 1000 nM, bound amount per unit captured Ab
T6 construct: extracellular domain; also called hFcγR IIb
T6 sequence (looked up): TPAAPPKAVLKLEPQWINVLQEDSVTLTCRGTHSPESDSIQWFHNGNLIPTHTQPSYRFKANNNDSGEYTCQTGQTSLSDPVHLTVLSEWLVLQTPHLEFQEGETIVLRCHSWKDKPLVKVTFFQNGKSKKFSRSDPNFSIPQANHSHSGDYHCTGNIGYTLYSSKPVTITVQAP
Protocol: as §1

[7] = target: T6, human FcγRIIb extracellular domain with …; test: SPR; binding amount divided by that of 04H1637-G1m/04L1610-lam1
[8] = target: T1, human FcγRIIIa V allotype extracellular …; test: SPR; KD of 04H1637-G1m/04L1610-lam1 divided by KD of variant;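 further: biacore T200 SPR at 25 °C, antibodies captured on anti-Fab-lambda SA chip with receptor as analyte, running buffer pH 7.4 for FcγRs and pH 6.0 for FcRn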
Protocol: as §1
(§2) The interaction between the generated antibodies and human FcRn was analyzed by the following method using Biacore T200. 50 mM Na-Phosphate, 150 mM NaCl, 0.05% Tween20 (pH 6.0) was used as the running buffer, and the assay was performed at 25° C. For the sensor chip, Series S SA (GE Healthcare) chips onto which CaptureSelect Human Fab-lambda Kinetics Biotin Conjugate (Thermo Fisher Scientific) was immobilized were used. The antibodies of interest were captured onto these chips and FcRn diluted in the running buffer was allowed to interact with them. Chips were regenerated with 10 mM Glycine-HCl (pH 1.5) and 25 mM NaOH, and assay was performed by repeatedly capturing antibodies. The dissociation constant for FcRn of each antibody was calculated using the steady state model, using Biacore T200 Evaluation Software 2.0.

[9] = target: T2, human FcγRIIa H allotype extracellular …; test: as above
Protocol: as §1, §2

[10] = target: T3, human FcγRIIa R allotype extracellular …; test: as above
Protocol: as §1, §2

[11] = target: T4, human FcγRIIIa F allotype extracellular …; test: as above
Protocol: as §1, §2

[12] = target: T5, human FcγRIa extracellular domain with …; test: as above
Protocol: as §1, §2

[13] = target: T7, human FcγRIIa R extracellular domain (human, UniProt P12318 34-217); test: SPR Biacore 8K+; KD for FcγRIIb divided by KD for this FcγR;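 further: antibodies captured on an anti-human Fab kappa SA chip with soluble human FcγR ectodomains flowed over, FcγRIIb KD from steady-state fit, other FcγR KD from Langmuir model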
T7 construct: extracellular domain; also called hFcγR IIa R
T7 sequence (looked up): T2 sequence (looked up) with H134R
Protocol: (§3) The interaction between the produced antibodies and human FcγRs was analyzed using Biacore 8K+ by the method below. For the running buffer, 50 mM Na-Phosphate, 150 mM NaCl, and 0.05% Tween20 (pH 7.4) was used, and measurement was performed at 25° C. The sensor chip used was a Series S SA chip (GE Healthcare) onto which CaptureSelect Human Fab-kappa Kinetics Biotin Conjugate (Thermo Fisher Scientific) was immobilized. An antibody of interest was captured onto this chip, and each FcγR diluted with the running buffer was allowed to interact with it. The chip was regenerated using 10 mM Glycine-HCl (pH 1.5), and repeatedly used to capture antibodies and perform measurement. The dissociation constants KD (mol/L) of each antibody for FcγRs were calculated using Biacore Insight Evaluation Software, with a steady state affinity model for the dissociation constant for FcγRIIb and a 1:1 Langmuir binding model for the dissociation constants for the other FcγRs (Table 48).

[14] = target: T8, human FcγRIIa H extracellular domain (human, UniProt P12318 34-217); test: as above
T8 construct: extracellular domain; also called hFcγR IIa H
T8 sequence (looked up): T2 sequence (looked up)
Protocol: as §3

[15] = target: T9, human FcγRIIIa V extracellular domain (human, UniProt P08637 17-208); test: as above
T9 construct: extracellular domain; also called hFcγR IIIa V
Protocol: as §3

[16] = target: T10, human FcγRIIIa F extracellular domain (human, UniProt P08637 17-208); test: as above
T10 construct: extracellular domain; also called hFcγR IIIa F
Protocol: as §3

[17] = target: T11, human FcγRIa extracellular domain (human, UniProt P12314 16-292); test: SPR Biacore 8K+; KD of G1d divided by KD of this antibody;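 further: antibodies captured on an anti-Fab-kappa streptavidin chip, soluble FcγR ectodomains flowed over, KD by steady-state fit for FcγRIIb and Langmuir kinetic model for the other receptors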
T11 construct: extracellular domain; also called hFcγR Ia; hFcγRIa
Protocol: as §3

[18] = target: T7, human FcγRIIa R extracellular domain; test: as above
Protocol: as §3

[19] = target: T8, human FcγRIIa H extracellular domain; test: as above
Protocol: as §3

[20] = target: T9, human FcγRIIIa V extracellular domain; test: as above
Protocol: as §3

[21] = target: T12, human FcγRIIb extracellular domain (human, UniProt P31994 43-217); test: as above
T12 construct: extracellular domain; also called hFcγR IIb
T12 sequence (looked up): T6 sequence (looked up)
Protocol: as §3

[22] = target: T10, human FcγRIIIa F extracellular domain; test: as above
Protocol: as §3

[23] = target: T12, human FcγRIIb extracellular domain; test: SPR Biacore 8K+, antibody captured, FcγR as analyte, steady state affinity model
[24] = target: T11, human FcγRIa extracellular domain; test: SPR Biacore 8K+, antibody captured, FcγR as analyte, 1:1 Langmuir model;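 further: antibodies captured on a streptavidin chip through a biotinylated anti-human Fab kappa reagent, with FcγR extracellular domains injected in pH 7.4 phosphate buffer at 25 °C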
[25] = target: T7, human FcγRIIa R extracellular domain; test: as above
[26] = target: T8, human FcγRIIa H extracellular domain; test: as above
[27] = target: T9, human FcγRIIIa V extracellular domain; test: as above
[28] = target: T10, human FcγRIIIa F extracellular domain; test: as above

T9 sequence (P08637 17-208 F176V limits assumed): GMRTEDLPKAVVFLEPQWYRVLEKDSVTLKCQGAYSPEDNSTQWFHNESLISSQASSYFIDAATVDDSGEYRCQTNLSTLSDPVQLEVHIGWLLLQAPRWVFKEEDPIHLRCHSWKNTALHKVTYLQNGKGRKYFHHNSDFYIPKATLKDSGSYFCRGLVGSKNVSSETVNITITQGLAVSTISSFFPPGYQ
T10 sequence (P08637 17-208): as the sequence (P08637 17-208 F176V limits assumed) above, with V160F counted along it
T1 sequence (P08637 17-208 F176V): as the sequence (P08637 17-208 F176V limits assumed) above
T11 sequence (P12314 16-292): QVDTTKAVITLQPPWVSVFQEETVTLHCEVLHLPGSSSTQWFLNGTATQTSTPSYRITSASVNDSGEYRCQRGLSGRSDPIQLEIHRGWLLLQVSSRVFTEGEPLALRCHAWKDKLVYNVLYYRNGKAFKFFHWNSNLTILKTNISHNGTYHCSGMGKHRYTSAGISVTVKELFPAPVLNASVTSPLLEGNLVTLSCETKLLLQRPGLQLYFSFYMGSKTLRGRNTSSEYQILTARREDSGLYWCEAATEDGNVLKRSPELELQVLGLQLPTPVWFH
T5 sequence (P12314 16-292): as above
T4 sequence (P08637 17-208): as the sequence (P08637 17-208 F176V limits assumed) above, with V160F counted along it

- Kd [1]: 5.2 nM
- Kd [2]: 70 nM
- Kd [3]: 220 nM
- Kd [4]: 17 nM
- Kd [5]: 0.15 nM
- Binding amount [6]: 0.013
- Relative binding amount [7]: 1.6
- Relative value to KD between G1m and hFcγRs [8]: 45.8
- Relative value to KD between G1m and hFcγRs [9]: 20.9
- Relative value to KD between G1m and hFcγRs [10]: 9.2
- Relative value to KD between G1m and hFcγRs [11]: 79.5
- Relative value to KD between G1m and hFcγRs [12]: 0.3
B1: 04H1637-Kn462/04L1610-lam1//04H1637-Hl441/04L1610-lam1 (antibody, human IgG1, lambda)
heavy 1: QVQLVESGGGLVKPGGSLRLSCAASGFTFSSKTMNWVRQAPGKGLEWVSSISTQSHYIYYAESVRGRFTISRDNAKNSLYLQMNSLRAEDTAVYYCARYGKREDMLWVFDYWGQGTLVTVSSASTKGPSVFPLAPSSKSTSGGTAALGCLVKDYFPEPVTVSWNSGALTSGVHTFPAVLQSSGLYSLSSVVTVPSSSLGTQTYICNVNHKPSNTKVDKKVEPKSCDKTHTCPPCPAPEFQWGPMVFLFPPKPKDVLMISRTPEVTCVVVDVSDEEPEVKFNWYVDGVEVHNAKTKPREEQYNATYRVVSVLPVLHQDWLNGKEYKCKVSNDALPAPIEKTISKAKGQPREPQVCTLPPSRDELTKNQVSLWCLVKGFYPSDIAVEWESNGQPENNYKTTPPVLDSDGSFFLYSKLTVDKSRWQQGNVFSCSVMHEALHNHYTQKSLSLSP
heavy 2: QVQLVESGGGLVKPGGSLRLSCAASGFTFSSKTMNWVRQAPGKGLEWVSSISTQSHYIYYAESVRGRFTISRDNAKNSLYLQMNSLRAEDTAVYYCARYGKREDMLWVFDYWGQGTLVTVSSASTKGPSVFPLAPSSKSTSGGTAALGCLVKDYFPEPVTVSWNSGALTSGVHTFPAVLQSSGLYSLSSVVTVPSSSLGTQTYICNVNHKPSNTKVDKKVEPKSCDKTHTCPPCPAPELLAGPSVFLFPPKPKDVLMISRTPEVTCVVVDVSHEEPEVKFNWYVDGVEVHNAKTKPREEQYNATYRVVSVLPVLHQDWLNGKEYKCKVSNDALPAPIEETISKAKGQPREPQVYTLPPSRCELTKNQVSLSCAVKGFYPSDIAVEWESNGQPENNYKTTPPVLDSDGSFFLVSKLTVDKSRWQQGNVFSCSVMHEALHNHYTQKSLSLSP
light: QSALTQPPSASGSPGQSVTISCEGPSTGVGDYNWVHWYQQHPGKAPKLMIYFTSKKPSGVPDRFSGSKSGNTASLTVSGLQAEDEADYYCQTYAAPLGPMFGGGTKLTVLGQPKAAPSVTLFPPSSEELQANKATLVCLISDFYPGAVTVAWKADSSPVKAGVETTTPSKQSNNKYAASSYLSLTPEQWKSHRSYSCQVTHEGSTVEKTVAPTECS
notes: Heterodimerized antibody; also called 04H1637-Kn462/04L1610-lam1//04H1637-H1441/04L1610-lam1

- A/I ratio (KD for FcγRIIb divided by KD for each FcγR) [13]: 2.8
- A/I ratio (KD for FcγRIIb divided by KD for each FcγR) [14]: 2.2
- A/I ratio (KD for FcγRIIb divided by KD for each FcγR) [15]: 266
- A/I ratio (KD for FcγRIIb divided by KD for each FcγR) [16]: 98.7
- Relative value to KD between G1d and hFcgRs [17]: 54.3
- Relative value to KD between G1d and hFcgRs [18]: 1.8
- Relative value to KD between G1d and hFcgRs [19]: 1
- Relative value to KD between G1d and hFcgRs [20]: 36.8
- Relative value to KD between G1d and hFcgRs [21]: 3.9
- Relative value to KD between G1d and hFcgRs [22]: 113
- Kd [23]: 2590 nM
- Kd [24]: 0.00166 nM
- Kd [25]: 935 nM
- Kd [26]: 1180 nM
- Kd [27]: 9.73 nM
- Kd [28]: 26.2 nM
B2: H240-Kn032/L73-k0//H240-Hl032/L73-k0 (antibody)
heavy 1: QDQLVQSGAEVKKPGASVKVSCKASGFNIKDTYIQWVRQAPGQGLEWMGRIDPLRKQTKYREKFEGRVTITADTSTNTAYMELSSLRSEDTAVYYCVRSGREFDYWGQGTLVTVSSASTKGPSVFPLAPSSKSTSGGTAALGCLVKDYFPEPVTVSWNSGALTSGVHTFPAVLQSSGLYSLSSVVTVPSSSLGTQTYICNVNHKPSNTKVDKKVEPKSCDKTHTCPPCPAPELLGGPDVFLFPPKPKDTLMISRTPEVTCVVVDVSHEDPEVKFNWYVDGVEVHNAKTKPREEQYNSTYRVVSVLTVLHQDWLNGKEYKCKVSNKALPLPEEKTISKAKGQPREPQVCTLPPSRDELTKNQVSLWCLVKGFYPSDIAVEWESNGQPENNYKTTPPVLDSDGSFFLYSKLTVDKSRWQQGNVFSCSVMHEALHNHYTQKSLSLSP
heavy 2: B2 heavy 1 with C348Y, D355C, W365S, L367A, Y406V
light: DIQMTQSPSSLSASVGDRVTITCRASQDIHKYIAWYQQKPGQAPRLLIQYTSTLQPGVPSRFSGSGSGTDYTFTISSLQPEDIATYYCLQYEQLRTFGGGTKVEIKRTVAAPSVFIFPPSDEQLKSGTASVVCLLNNFYPREAKVQWKVDNALQSGNSQESVTEQDSKDSTYSLSSTLTLSKADYEKHKVYACEVTHQGLSSPVTKSFNRGEC
notes: also called EGL-SDALIE; SDALIE
